From publication PMC6119766, “Terminal Regions Confer Plasticity to the Tetrameric Assembly of Human HspB2 and HspB3” (Journal of Molecular Biology, 2018)
Residue numbers refer to the chain shown, from its start.

B1: human HspB2 (natural protein, UniProt Q16082 1-182, looked up)
chain: MSGRSVPHAHPATAEYEFANPSRLGEQRFGEGLLPEEILTPTLYHGYYVRPRAAPAGEGSRAGASELRLSEGKFQAFLDVSHFTPDEVTVRTVDNLLEVSARHPQRLDRHGFVSREFCRTYVLPADVDPWRVRAALSHDGILNLEAPRGGRHLDTEVNEVYISLLPAPPDPEEEEEAAIVEP
notes: human HspB2 (small heat shock protein B2); Made together with HspB3 from one pET3a construct; also called HsB2; HspB2_Human; source: E. coli BL21(DE3), pET3a-HspB2/B3, purified (DEAE-Sepharose, Source 15Q)
B2: rat HspB2/B3 hetero-tetramer (complex)
chain 1: B1 chain with S5T, P55R, S60G, A177V, I179R
chain 2: MAKIILRHLIETPVRYQEEFEARGLEDCRLDHALYALPGPTIEDLRKARGTPKALAEDSDSAETPPGEGKSRFQILLDVVQFLPEDIIIQTFEGWLLIKAQHGTRMDEHGFISRSFTRQYKLPDGVETKDLSAILCHDGILVVEVKDPLETK
notes: rat HspB2, as m5; rat HspB3, as m6; The protomer that forms the higher oligomers; also called wild-type rat HspB2/B3; copies: 3 + 1
B3: engineered human HspB3 with the C-terminal extension of human HspB2 (HspB3 + B2tail) (other)
chain: MAKIILRHLIEIPVRYQEEFEARGLEDCRLDHALYALPGPTIVDLRKTRAAQSPPVDSAAETPPREGKSHFQILLDVVQFLPEDIIIQTFEGWLLIKAQHGTRMDEHGFISRSFTRQYKLPDGVEIKDLSAVLCHDGILVVEVKDPVGTPEEEEEAAIVEP
notes: human HspB3 without its C-terminal lysine, which was replaced by the HspB2 tail; last 12 amino acids of human HspB2, residues 171-182; The results say the tail was added to the C-terminus; the methods say it replaced the C-terminal lysine (the reverse primer fits the methods); also called engineered HspB3 mutant; engineered mutant human HspB3; source: E. coli BL21(DE3), pET3a-HspB2/B3 mutant, …
B4: rat HspB3 (natural protein, UniProt Q9QZ58 1-152, looked up)
chain: B2 chain 2
notes: rat HspB3, wild type; ultimate C-terminal residue K152; also called RnB3; HspB3_Rat
B5: rat HspB2 (natural protein, UniProt O35878 1-182, looked up)
chain: B1 chain with S5T, P55R, S60G, A177V, I179R
notes: rat HspB2, wild type; C-terminal residues E172 to P182 seen by NMR; also called RnB2; HspB2_Rat
B6: human HspB3 (wild type) (natural protein, UniProt Q12988 1-150, looked up)
chain: MAKIILRHLIEIPVRYQEEFEARGLEDCRLDHALYALPGPTIVDLRKTRAAQSPPVDSAAETPPREGKSHFQILLDVVQFLPEDIIIQTFEGWLLIKAQHGTRMDEHGFISRSFTRQYKLPDGVEIKDLSAVLCHDGILVVEVKDPVGTK
notes: human HspB3 (small heat shock protein B3); HspB3 could not be purified alone; it is obtained only in complex with HspB2; also called HsB3; HspB3_Human; source: E. coli BL21(DE3), pET3a-HspB2/B3 wild type, purified with HspB2 (DEAE-Sepharose, Source 15Q)

What was measured:
[1] = target: B3; test: SEC + native MS; HspB2/B3 complexes; Superdex 200 10/300 fractions nanoelectrosprayed at 10 μM in 200 mM ammonium acetate (pH 6.9); conditions: both partners purified
[2] = target: B6; test: as above; conditions: both partners purified
[3] = target: the molecule itself; test: crystal structure; hanging drop at 21 °C; 3.9 Å; space group P3(1); three hetero-tetramers (12 chains) in the asymmetric unit
[4] = target: the molecule itself; test: SEC + native MS; HspB2/B3 complexes; Superdex 200 10/300 fractions nanoelectrosprayed at 10 μM in 200 mM ammonium acetate (pH 6.9)
[5] = target: B1; test: crystal structure; hanging drop at 21 °C; 3.9 Å; space group P3(1); three hetero-tetramers (12 chains) in the asymmetric unit; conditions: both partners purified
[6] = target: B1; test: SEC + native MS; HspB2/B3 complexes; Superdex 200 10/300 fractions nanoelectrosprayed at 10 μM in 200 mM ammonium acetate (pH 6.9); conditions: both partners purified
[7] = target: B4; test: as above; conditions: both partners purified
[8] = target: B5; test: as above; conditions: both partners purified

Binder: B1
stoichiometry N [1]: 3 HspB2 per HspB3
stoichiometry N [2]: 3 HspB2 per HspB3
binding result [3]: binds

Binder: B2
stoichiometry N [4]: 8 to 24 chains (the hetero-tetramer has 4)

Binder: B3
binding result [5]: binds

Binder: B4
binding result [6]: binds

Binder: B5
stoichiometry N [7]: 3 HspB2 per HspB3

Binder: B6
binding result [8]: binds
